In publication PMC9365700, “Architecture and self-assembly of the jumbo bacteriophage nuclear shell” (Nature, 2022):
Where “and” joins values, the source holds several entries; their conditions need not be identical. Equal values may be shown once.

B1: Goslar chimallin (gp189), full length, recombinant (natural protein, bacteriophage Goslar, UniProt A0A482GDX1 1-631, looked up)
chain: MGLDVRNNGNDNVEIRAAETRTAQRADEALETAADFAGQPKVTHTMRTINRTLSRRISRNTGSEQVLNLRRLMEKYLEDTRFKDDFIFVAVDPNQYSVPYPTLVVMSGAKVGDHNHFFGYVLPLVAGLAPLPRREEQGPHGNILVPRTWVDNLNGTFINEVMAAMYAAIGGKSNGTARIAGLAVVTNEITAESAHLATTLLSAADNAIQTAIEIRLGDKLGLPQFNLGMMASDQPISSVQYNTSGMQDSDIVGNPVRSDITVTISNRIRQAMSDYDSQQRLVATTGYIDLTYSPQNPTFNQGPVLVNGYPVPPTVQYQPRYVMTSAYPLELDAFTPNTFVLGLIGTIATLNSGMAWAQSLISNAARGIGPHNPGALAMVLDPEVTAPLDLSTQTNEQIYKFLQQVLYPSLLISIDVPEEGEYSWLLRMIPAAEKIYTGKVEGEVREISEGYKALYRAFDDVTLGCFSKKYQYGLPLVYATGNRIPLGHYNHQDGHRHDIRDMDDLYMMNITNPDTVEAWEDSFDRTDMTMSQRVVARHEIIDRVLSGSWEQTGWAMRYDFDPLALQALIEAAADAGFTIRPENIQHLAGTAVRGNMAARARGLGNISGNIYARSDRPNVGVNNMGGAFNLF
notes: Chimallin (gp189) of E. coli jumbo bacteriophage Goslar, 631 amino acids, NCBI YP_009820873.1; Cloned in UC Berkeley Macrolab vector 2-BT (Addgene #29666) with a TEV-cleavable His6 tag; tag removed before SEC; not shown: His6, N-terminal, cleaved
B2: 201phi2-1 chimallin (gp105), full length, recombinant (natural protein, bacteriophage 201phi2-1, UniProt B3FIW8 1-631, looked up)
chain: MIRDTATNTTQTQAAPQQAPAQQFTQAPQEKPMQSTQSQPTPSYAGTGGINSQFTRSGNVQGGDARASEALTVFTRLKEQAVAQQDLADDFSILRFDRDQHQVGWSSLVIAKQISLNGQPVIAVRPLILPNNSIELPKRKTNIVNGMQTDVIESDIDVGTVFSAQYFNRLSTYVQNTLGKPGAKVVLAGPFPIPADLVLKDSELQLRNLLIKSVNACDDILALHSGERPFTIAGLKGQQGETLAAKVDIRTQPLHDTVGNPIRADIVVTTQRVRRNGQQENEFYETDVKLNQVAMFTNLERTPQAQAQTLFPNQQQVATPAPWVASVVITDVRNADGIQANTPEMYWFALSNAFRSTHGHAWARPFLPMTGVAKDMKDIGALGWMSALRNRIDTKAANFDDAQFGQLMLSQVQPNPVFQIDLNRMGETAQMDSLQLDAAGGPNAQKAAATIIRQINNLGGGGFERFFDHTTQPILERTGQVIDLGNWFDGDEKRDRRDLDNLAALNAAEGNENEFWGFYGAQLNPNLHPDLRNRQSRNYDRQYLGSTVTYTGKAERCTYNAKFIEALDRYLAEAGLQITMDNTSVLNSGQRFMGNSVIGNNMVSGQAQVHSAYAGTQGFNTQYQTGPSSFY
notes: Cloned in UC Berkeley Macrolab vector 2-BT (Addgene #29666) with a TEV-cleavable His6 tag; tag removed before SEC; also called ChmA; FL; not shown: His6, N-terminal, cleaved

Biological target: the molecule itself
Experiment: cryo-EM structure; single-particle analysis of the defined assemblies from SEC with localized reconstruction (O, C4, C1); 201phi2-1 about 4 µM monomer, Goslar about 33 µM monomer

Protein	stoichiometry N
B1	24 protomers
B2	24 protomers and 40 protomers
